Biological target: T1, androgen receptor transcriptional activation (Homo sapiens, UniProt P10275)
T1 construct: The pcDNA3:hAR expression plasmid was used to produce full length human AR; expressed in transfected cells; host or cells: HeLa and PC-3 (both AR deficient)
T1 sequence (P10275 1-920): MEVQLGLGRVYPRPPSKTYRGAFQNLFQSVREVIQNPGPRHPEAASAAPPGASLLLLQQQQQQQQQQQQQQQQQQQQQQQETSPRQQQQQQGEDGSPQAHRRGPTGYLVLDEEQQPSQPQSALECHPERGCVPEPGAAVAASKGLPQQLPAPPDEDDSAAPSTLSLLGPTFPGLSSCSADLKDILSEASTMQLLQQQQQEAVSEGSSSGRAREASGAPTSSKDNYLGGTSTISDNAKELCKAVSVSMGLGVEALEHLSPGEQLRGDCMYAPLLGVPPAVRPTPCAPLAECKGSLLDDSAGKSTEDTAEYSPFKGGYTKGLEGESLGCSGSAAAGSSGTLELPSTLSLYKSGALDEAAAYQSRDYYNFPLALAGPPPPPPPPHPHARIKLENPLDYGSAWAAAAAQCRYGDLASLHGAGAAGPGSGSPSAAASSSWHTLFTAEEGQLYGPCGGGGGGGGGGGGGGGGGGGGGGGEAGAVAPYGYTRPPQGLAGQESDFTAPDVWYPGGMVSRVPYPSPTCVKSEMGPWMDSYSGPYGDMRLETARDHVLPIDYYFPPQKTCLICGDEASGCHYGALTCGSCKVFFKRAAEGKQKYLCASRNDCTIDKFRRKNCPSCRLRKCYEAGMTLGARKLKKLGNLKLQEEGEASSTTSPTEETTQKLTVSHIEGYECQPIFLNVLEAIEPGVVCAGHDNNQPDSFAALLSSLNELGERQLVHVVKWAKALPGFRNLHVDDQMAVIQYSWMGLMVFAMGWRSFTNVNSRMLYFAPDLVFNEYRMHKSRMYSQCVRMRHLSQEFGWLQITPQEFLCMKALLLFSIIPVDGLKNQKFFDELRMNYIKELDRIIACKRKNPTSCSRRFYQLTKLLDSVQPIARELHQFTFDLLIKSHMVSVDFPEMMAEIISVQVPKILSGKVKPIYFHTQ
Assay: Transient transfection, AR-responsive luciferase reporter assay
Type: cell-based
Conditions: overexpressed in cultured mammalian cells
Description: The two ART-27 derivatives used in the mammalian cell culture experiments were constructed as follows: using EcoRI-XhoI, ART-27 was subcloned from pEG202:ART-27 into a pcDNA3 vector that has an N-terminal HA epitope (pCDNA3-HA) in the same reading frame as the LexA moiety in pEG202 with respect to the EcoRI site; ART-271-127 was subcloned from pEG202:ART-271-127 into pcDNA3-HA, pJG4-5:Sp183-262, pJG4-5:Sp1263-542, pJG4-5:TAF130270-700, and pJG4-5:CREB3-296 were provided by N. Tanese (New York University School of Medicine, New York). pJG4-5:SRC-1374-800 was provided by H. Samuels (New York University School of Medicine, New York). pJG4-5:GR107-237 was previously described (Hittelman et al., 1999). The pJK103 reporter plasmid, which contains a single LexA operator linked to β-galactosidase, was used in all activity assays of the LexA fusion proteins and in the modified two-hybrid assay. The pΔ4X-LALO-luciferase reporter plasmid, which contains four LexA operators upstream of a minimal Drosophila alcohol dehydrogenase promoter linked to luciferase, was used in mammalian activity assays to monitor the intrinsic transcriptional activity of the LexA fusion proteins. […]

B1: ART-5: Androgen Receptor Trapped protein, SEQ ID NO:4, unknown function, represented in EST database (protein)
chain: MHNPDGSASPTADPGSELQTLGQAARRPPPPRAGHDAPRRTRPSARKPLSCFSRRPMPTREPPKTRGSRGHLHTHPPGPGPPLQGLAPRGLKTSAPRPPCQPQPGPHKAKTKKIVFEDELLSQALLGAKKPIGAIPKGHKPRPHPVPDYELKYPPVSSERERSRYVAVFQDQYGEFLELQHEVGCAQAKLRQLEALLSSLPPPQSQKEAQVAARVWREFEMKRMDPGFLDKQARCHYLKGKLRHLKTQIQKFDDQGDSEGSVYF
modifications: Human
With B1 the androgen receptor-dependent transactivation was “increase”.
